We go through 1 molecule from US10806798B2, “Compound with effects of thrombolysis, free radical scavenging and thrombus-targeting” (Shanghai Lumosa Therapeutics Co., Ltd., priority 2012, dated 2020).

Structures are written as SMILES. Bridge positions count the residues as written; N and C are the ends. Peptide text beside a SMILES is read from it. I, II: the chains in the order shown. * marks the point of attachment. X1 = CC1(C)N([O])C(c2ccc(OCC(=O)*)cc2)=[N+]([O-])C1(C)C

Series [1] concerns rats with stroke. Briefly: Treatment 6 h after the onset of stroke, Ie 5 μmol/kg initially then 2 μmol/kg (Zealonga scores). Format: in vivo, SD rats. Particulars: Ie 5 μmol/kg on day 1 (6 h after onset), 2 μmol/kg per day for 5 days. The method, then:
(§1) The efficacy was represented by neural function scores, and a lower score indicates higher efficacy. A 10% chloral hydrate solution was injected intraperitoneally into male SD rats at a dosage of 400 mg/kg body weight for anesthesia. A longitudinal open incision was made at the center of the neck, and the right common carotid artery trunk was dissected (about 3 cm in length). Carotid external artery branches were each dissected and ligated at the hyoid level, and the carotid internal artery was dissected at the swollen part of the neck. The open incision in the carotid internal artery and the proximal end of the common carotid artery were occluded respectively with noninvasive arterial clips, and the distal end of the carotid external artery was ligated. A catheter containing 0.5 mL thrombus suspension in normal saline was inserted in the carotid external artery trunk. At the same time when the clip on the carotid internal artery was released, the 0.5 mL thrombus suspension in normal saline in the catheter slowly flew from the carotid external artery to its proximal end, and then was injected into the arteries in brain through the carotid internal artery. […] The rats were compared to themselves each day, and evaluated for the degree of damage in neural function by the Zealonga method. […]

The test system of series [2] is rats with stroke. Briefly: Treatment 24 h after the onset of stroke, Ie 5 μmol/kg initially then 2 μmol/kg (Zealonga scores). Format: in vivo, SD rats. Particulars: Ie 5 μmol/kg on day 1 (24 h after onset), 2 μmol/kg per day for 5 days. The method, then: as §1, with “score indicates a higher efficacy.” for “score indicates higher efficacy.”, “The open incisions in the” for “The open incision in the”

The subject of series [3] is rats with stroke. Briefly: Treatment 6 h after the onset of stroke induced by aged thrombus, Ie 2 μmol/kg (Zealonga scores). Particulars: 2 μmol/kg Ie per day for 6 days from 6 h after onset. The class given is in vivo, SD rats. The method, then: as §1, with “score indicates a higher efficacy.” for “score indicates higher efficacy.”, “The open incisions in the” for “The open incision in the”

The nature of series [4]: FT-MS monitoring of metabolic products in brain tissues of rats treated with Ie. The class given is in vivo. The method, then: The entire rat brain was taken out and placed into a 50 mL centrifuge tube, into which 10 mL 0.9% NaCl was added, and homogenized to obtain a uniform suspension which was then centrifuged at 3000 rpm for 10 min. 5 mL supernatant was added into 10 mL methanol and evenly mixed by shaking, and centrifuged at 3000 rpm for 10 min. The supernatant was concentrated under reduced pressure until dry, followed by addition of 1 mL methanol, and again centrifuged at 12000 rpm for 10 min. The resultant supernatant was used for monitoring of the content of metabolic products in brain tissues in rats treated with compound Ie.
(MS conditions: loading: 10 μL; ionization mode: ES+; cone voltage: 30 V; mobile phase flow rate: 0.2 mL/min). According to the above data, the metabolic products M1 and M2 were assumed as the following compounds: […]

As for `CC(C)[C@H](NC(=O)[C@H](CC(=O)O)NC(=O)CNC(=O)[C@H](CCCNC(=N)N)NC(=O)[C@H](CCCCNC(=O)[C@H](CCCCN)NC(=O)[C@H](C)NC(=O)[C@@H]1CCCN1C(=O)[C@H](CCCNC(=N)N)NC(=O)CN)NC(=O)COc1ccc(C2=[N+]([O-])C(C)(C)C(C)(C)N2[O])cc1)C(=O)O` [Ie, 1,3-dioxo-2-{4′-oxyacetyl-[N^ω-(Gly-Arg-Pro-Ala-Lys)-Lys-Arg-Gly-Asp-Val]phenyl}-4,4,5,5-tetramethylimidazoline] (I: H-GRPAK / II: X1-KRGDV-OH; amide I:C-II:1), the “rats dead among the 12 rats that received the treatment” value is “two were dead” in the series on rats with stroke [1], “three were dead” in the series with rats with stroke [2] and “six were dead” with rats with stroke [3]. Further, the “crossing of the blood-brain barrier” value in series [4] (concluded from metabolic products found in rat brain) is on record as “did indeed cross the blood-brain barrier”. In addition, the “metabolic products in brain tissues” value in series [4] (rats treated with compound Ie, high-resolution FT-MS) was “two metabolic products M1 and M2 in the brain”.
